Laboratory results reported in US20130089893A1 (TRILLIUM THERAPEUTICS, published 2013).

Assays:
[1] = biological target: ovalbumin-anti-ovalbumin immune complexes (OVA ICs); experiment: cell-based or functional assay
[2] = biological target: heat-aggregated IgG (HAGG); experiment: cell-based or functional assay

B1: recombinant soluble FcγRIIa dimer (rsFcγRIIa dimer), head to tail homodimer construct of FIG. 1 (receptor)
chain: QAAAPPKAVLKLEPPWINVLQEDSVTLTCQGARSPESDSIQWFHNGNLIPTHTQPSYRFKANNNDSGEYTCQTGQTSLSDPVHLTVLSEWLVLQTPHLEFQEGETIMLRCHSWKDKPLVKVTFFQNGKSQKFSHLDPTFSIPQANHSHSGDYHCTGNIGYTLFSSKPVTITVQVPSMGSSSPVAPPKAVLKLEPPWINVLQEDSVTLTCQGARSPESDSIQWFHNGNLIPTHTQPSYRFKANNNDSGEYTCQTGQTSLSDPVHLTVLSEWLVLQTPHLEFQEGETIMLRCHSWKDKPLVKVTFFQNGKSQKFSHLDPTFSIPQANHSHSGDYHCTGNIGYTLFSSKPVTITVQVPSMGSSSPHHHHHH
IC50, TNF-α release from MC/9 cells induced by OVA ICs [1]: 2.1 µg/mL | fold potency against rsFcγRIIa monomer, MC/9 TNF-α release [1]: 8 fold

B2: recombinant soluble D2FcγRIIaFc (D2) protein (Fc fusion)
chain: QAAAPPKAVLKLEPPWINVLQEDSVTLTCQGARSPESDSIQWFHNGNLIPTHTQPSYRFKANNNDSGEYTCQTGQTSLSDPVHLTVLSEWLVLQTPHLEFQEGETIMLRCHSWKDKPLVKVTFFQNGKSQKFSHLDPTFSIPQANHSHSGDYHCTGNIGYTLFSSKPVTITVQVPSMGSSSPVAPPKAVLKLEPPWINVLQEDSVTLTCQGARSPESDSIQWFHNGNLIPTHTQPSYRFKANNNDSGEYTCQTGQTSLSDPVHLTVLSEWLVLQTPHLEFQEGETIMLRCHSWKDKPLVKVTFFQNGKSQKFSHLDPTFSIPQANHSHSGDYHCTGNIGYTLFSSKPVTITVQVPSMGSSSPPRGPTIKPCPPCKCPAPNLEGGPSVFIFPPKIKDVLMISLSPIVTCVVVDVSEDDPDVQISWFVNNVEVHTAQTQTHREDYNSTLRVVSALPIQHQDWMSGKAFACAVNNKDLPAPIERTISKPKGSVRAPQVYVLPPPEEEMTKKQVTLTCMVTDFMPEDIYVEWTNNGKTELNYKNTEPVLDSDGSYFMYSKLRVEKKNWVERNSYSCSVVHEGLHNHHTTKSFSRTPGK
fold potency against BIF and M2, loss of CD62L on human neutrophils induced by OVA ICs [1]: ~6 fold | fold potency against Fc-tagged monomer (M2), MC/9 TNF-α release [1]: 12 fold | fold potency against the non-Fc tagged dimer, MC/9 TNF-α release [1]: 3 fold | fold potency against BIF and M2, HAGG-induced platelet activation (CD41 and CD62P positive) [2]: ~3 fold
